Data published in the nanobody polyreactivity screen of Harvey et al. (2022).

Test: yeast display, Sf9 membrane polyspecificity reagent, FACS + sequencing; frameworks hold sequencing errors
In short: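 Genes from sorted yeast were amplified by colony PCR, read by MiSeq 2 × 250 sequencing and filtered on CDR length. These cells carried a synthetic nanobody library in Saccharomyces cerevisiae BJ5465 and were sorted by FACS into low and high (top ~1%) gates on anti-HA and streptavidin fluorescence. Polyreactivity is labelled according to the gate of origin.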

| Sequence | polyreactivity (PSR sort gate) |
| --- | --- |
| QVQLVESGGGLVQAGGSLRLTCAASGSTFYRNAMGWYRQAPVKERELVATISSSDGSTYYADSVKGRFTISRDNAKNTVYLQMNSLKPEDTAVYYCATEIYYTKTYDSWGQGTQVTVSS | low polyreactivity |
| QVQLVESGGGLVQAGGSLRLTCAASGSTFYYNAMGWYRQAPAKERELVADISWRGGITYYADSVKGRFTISRDNAKNTVYLQMNSLKPEDTAVYYFKADAESFDDGYWGQGTQVTVSS | low polyreactivity |
| QVQLVESGGGLVQAGGSLRLTCAASGSTIADNAMGWYRPAPGTERELVAGITRRGGSTYYADSVKGRFTISRDNAKNTVYLQMNSLKPEDTAVYYCNKGPVRGRYSVWPIEMDYWGQGTQVTVSS | low polyreactivity |
| QVQLVESGGGLVQAGGSLRLTCAASGSTSEVYAMGWYRQAPGKEREFVAAISRSGGTTYYADSVKGRFTISRDNAKNTVYLQMKSVKPEDTAVYYCNARGYSGVSGKYGYWGQGTQVTVSS | high polyreactivity |
| QVQLVESGGGLVQAGGSLRLTCAASGSTSPANTMGWYRQAPGKETEFVAGISRRGGRTYYADSVKGRFTISRDNAKNTVYLQMNSLKPEDTAVFYCATALIVRCPSRYEYWGQGTQVTVSS | high polyreactivity |
| QVQLVESGGGLVQAGGSLRLTCAATGRIFSRYAMGWYRQAPGKERELVAAISRSGGSTYYADSVKGRFTISRDNAKNTVYFQMNSLKPEDTAVYYCAARNVFSYPPGSYYYWGQGTQVTVSS | high polyreactivity |
| QVQLVESGGGLVQAGGSLRLTCAGSGSTYGKYAIGGYRQAPGKERQLVAAISYRGGRTFYADSVKGRFTISRDNAKNTVFLQMKSLKPEDTAVYYCAAYPGVSRGTGPRRYDYWGQGTQVTVSS | high polyreactivity |
| QVQLVESGGGLVQAGGSLRLTCASSGIIFKLYAMGWYRQAPAKESELVAAITYRGGTTYYADSVKGRFTITRDNAKNTVYLQMNSLKPEDTAVYYCAVAVTSYSSKKLYYWGQGTQVTVSS | low polyreactivity |
| QVQLVESGGGLVQAGGSLRLTCASSGRILVSYAIGWYRQAPGKERELVAAISRSGGSTYYADSVKGRFTISRDIAKNTVYLQMNSLKTEDTAVYYCNVYRFSRYDYWGQGTKVTVSS | high polyreactivity |
| QVQLVESGGGLVQAGGSLRLTCDASGRIFVHNAMGWYRQAPGKERELVAAISWSGSSTYYADSVKGRFTISRDNAKNSVYLQMNSLKPEDTAVYYCLGQGTQVTVSS | low polyreactivity |
| QVQLVESGGGLVQAGGSLRLTCGASGRIFSFYVMGWYRQAPGKERELVAAISLSGGSTYYADSVKGRFTISRDNAKNTVYLQMNSLKPEDTAVYYCAARYASPRYKSKMDYWGQGTQVTVSS | high polyreactivity |
| QVQLVESGGGLVQAGGSLRLTSAASGFIFWPYLMGWYRQAPGKDRELVAAISQGDGSTYYADSVKVRFTISRDNAKNTVYLQMNSLKGEDTAVYYCAADVTVAWYPVYPGFYYWGQGTQVTVSS | low polyreactivity |
| QVQLVESGGGLVQAGGSLRLTSAASGRIFGYYAMGWYRQAPGKERDLVAAIRYSSGRTYYADSVKGRFTISRDNAKNIVYLQMNSLKPEDTAVYYGNAGYLFLRSYPHDYWGQGTQVTVSS | high polyreactivity |
| QVQLVESGGGLVQAGGSLRLTSAASGSTFLKYTMGWYRQAPGKERELVAGITYSGGSTSYADSVKGRFTISRDNAKNTVYFQMNSLKPEDTAVYYSAAARNTVYSYRGLFYWGQGTQVTLSS | high polyreactivity |
| QVQLVESGGGLVQAGGSLRRSCAAYGRIFTMNAMGWYRQAPGKESELVAVISRSGCSTYYADSVKGRFTISRDNAKNTVYLQMNSLNPEDTAVYYCNAVPIYYAWRRNKPFDYWGLGTQVTVSS | low polyreactivity |
| QVQLVESGGGLVQAGGSLRVSCAASGFIIEVNSMAWYRQAPGKERELVARIDWSGGSTYYADSVKGRFTISRDNAKNTVFLQMNSLIPEDTAVYYCAVVASRSHTETPEYDYWGQGTQVTVSS | low polyreactivity |
| QVQLVESGGGLVQAGGSLRVSCAASGFTFGPNAMGWYSQAPGKERELVAAISQSGGSTYADSEKGRFTISRDNAKNTDYLHMNSLKPEDTAVYYCAAEFPDYYWWYEYWGQGTQVTVSS | high polyreactivity |
| QVQLVESGGGLVQAGGSLRVSCAASGFTFYLYAMGWYRQAPGKERELVAAITWSGGRTYYADSVKGRFTISRDNAKNTVYLQMNSLKPEDTAVYNCAAVVRKQLSAPSDYWGQGTQVTVSS | high polyreactivity |
| QVQLVESGGGLVQAGGSLRVSCAASGFTFYRYAMGWYRQAPGKERELVAAITWSGGSTYYADSVKGRFTISRDNAKNTVYLQMNSLKPEDTAVYYCAADIYDGGFDYWGQGTQVTVSS | low polyreactivity |
| QVQLVESGGGLVQAGGSLRVSCAASGIIFRIYAMGWYRQAPGKEREFVAAISGSGDSTYYADSVKGRLTISRDNAKTTVYLQMNSLKPEDTAVYYCAADWTLVYYHEDYWGQGTQVTVSS | low polyreactivity |
| QVQLVESGGGLVQAGGSLRVSCAASGRIFFPYDMGWYRQAPGKERELVAAITNSGGRTYYADSVKGRFTISRDKAKNTVYLQMNSLKPEDTAVYYCNADAYEFRWVKHYDYWGQGTQVTVSS | low polyreactivity |
| QVQLVESGGGLVQAGGSLRVSCAASGRIFRWYAMGWYRQAPGKERELVAAITSRGTSTYYADSVKGRFTISRDNAKNTDYLQMNSLKPEDTAVYYCNAVPSRGYDYWGQGTQVTVSS | high polyreactivity |

| Sequence | polyreactivity (PSR sort gate) |
| --- | --- |
| QVQLVESGGGLVQAGGSLRVSCAASGRIFVQYDMGWYRQAPGKERELVAAINDSGDITYYADSVKGRFTISRDNAKNTVYLQMTSLKPEDTAVYSCAASAAYYGFYKSVTYDYWGQGTQVSVSS | low polyreactivity |
| QVQLVESGGGLVQAGGSLRVSCAASGRIFWYNDMGWYRQAPGKERELVAAITARGTRTHYADSVKGRFTISRDNAKKTVYLQMNSLKPEDTAVYYCAKGWYTVVWDAPVFSERGEYWGQGTQVTVSS | low polyreactivity |
| QVQLVESGGGLVQAGGSLRVSCAASGRTFGYNAMGWYRQAPGKERELVATISWGGGSTYYADSVKVRFTISRDNAKNTVYLQMNSLKPEDTAVYYCAATYWTYPYHYQYKYDYWGQGTQVTVSS | high polyreactivity |
| QVQLVESGGGLVQAGGSLRVSCAASGRTFRSYAMGWYRQAPGKERELVAAIRRGGSTNYADSVKGRFPISRDNAKYTVYLQMNSLKPEDTAVYYCAARYTRWRYNYKDYDYWGQGTQVTVSS | high polyreactivity |
| QVQLVESGGGLVQAGGSLRVSCAASGRTFRYYAMGWYRQAPGKERELVASISDGGSTNYADSVKGRFTISRDNAKNTVYLQMNSQKPEDTAVYYCNAKAYVWYLYDEFGYWGQGTQVTVSS | low polyreactivity |
| QVQLVESGGGLVQAGGSLRVSCAASGSIFGYYAMGWSRQAPGKERELVAGINWSGGSTYADSVKGRFTISRDNAKNTVYLKMNSLKPEDTAVYYCYLRYRKYSSAKYDYWGQGTQVTVSS | high polyreactivity |
| QVQLVESGGGLVQAGGSLRVSCAASGSIFQYYGMGWYRQAPGKERELVAAISRGGSTNYADSVKGRFTISRDYAKNTGYLQMNSLKPEDTAVYYCNARTYRKAYSGYNYWGQGTQVTVSS | high polyreactivity |
| QVQLVESGGGLVQAGGSLRVSCAASGSIFRWYTMGCYRQAPGKEREFVADISWSGGRTYYADSVKGRFTISRDNASYSVYLQMNCLKPEDTAVYYCNAEHNTRYDYWGQGTQVSVSS | low polyreactivity |
| QVQLVESGGGLVQAGGSLRVSCAASGSIFSIYAMGWYRQAPGKERELVASITRSSGRTYYADSVKGRFTISRDNAKKTVYLQMNSLKPEDTAVYYCAKDYIPLALDADDYWGQGTQVSVSS | low polyreactivity |
| QVQLVESGGGLVQAGGSLRVSCAASGSTFDPNAMGWYRQATGKERELVADIDSGGSTYYADSVKGRFTISRDNAKNTVYLQMNSMKPEDTAVYYCATKQPTWVPRVIISYTKFDYWGQGTQVTVSS | low polyreactivity |
| QVQLVESGGGLVQAGGSLRVSCAASGSTFDVNAMGWYRQAPGKERELVAVITSGGSTNYADSVKGRFTISRDNAKNSVYLQMNSLKPEATAVYYCAKDSRTLYDYWGQGTQVTVSS | low polyreactivity |
| QVQLVESGGGLVQAGGSLRVSCAASGSTFILNAMGWYRQAPGKERELVATISSSDTSTYYADSVKGRFTISRDHAKNTVYLQMNSMKPEDTAVYYCNADYYTTAYLQRVYHYGVEYDYWGQVTQVTVSS | low polyreactivity |
| QVQLVESGGGLVQAGGSLRVSCAASGSTFYYYAMGGYSQAPGKERELVAAISSRGGSTYYADSVKGRFRISRDNAKNTVYLQMNSLKPEDTAVYYCAASSQRISPDHDYWGQGTQVTVSS | high polyreactivity |
| QVQLVESGGGLVQAGGSLRYSCAASGLIFQHNALGWYRPAPGKERELVAAISGSGGSTYYADSVKGRFTISRDNAKNTVYLQMNSLKPEDTAVYYCATDDRYYRRYYWGQGTQVTVAS | high polyreactivity |
| QVQLVESGGGLVQAGGSLSFSCAAPGSIFPRYAMGWYRQAPGKERELVAAISRSGGSTYYADSVKGRFTISRDNAKNSVYLQMNSLKPEDTAVYYCATDKVSHRRYDYWGQGTQVTVSS | high polyreactivity |
| QVQLVESGGGLVQAGGSLSFSCAASGFIFRAYTMGWYRQAPGKERELVAAITSSGGRTYYADSVKGRFTISRDNAKNSVYLQMNSLKPEDTAVYYCATVYAKWKQFDYWGQGTQVTVSS | high polyreactivity |
| QVQLVESGGGLVQAGGSLSISCAASDLPGLCYGWYRQAPGKERELVAAMTSNGGSTYYADSVKGRFTISRDNAKITVYLQMNSLKPEDTAVYYCATEHHTVQVYDYWGQGTQVTVSS | low polyreactivity |
| QVQLVESGGGLVQAGGSLSLICAASGGTFYKYAMGWYRQAPGKERELDAAISRSGGSTYYADSVKGRFTISRDNAKNTVYLQINRLKPEDTAVYYCKAYGSYWDFDYWGQRTQVTVSS | high polyreactivity |
| QVQLVESGGGLVQAGGSLSLICAASGSIFTRNAMGWYRQAPGKERELVAAISRRGVSTYYADSVKGRFTNSRDNAKNTVYLQMNSLKPEDTAVYYCNKLSSYVVARRTTEYDYWGQGTQVTVSS | high polyreactivity |
| QVQLVESGGGLVQAGGSLSLICAASGYTLKYYAMGWYRQAPGKERELVAVISRGGSTYYADSVKGRFTISRDNAKNTVYLQMNSLNPEDTAVYYCAKRPTQGYYPYGYWGQGTQVTVSS | high polyreactivity |
| QVQLVESGGGLVQAGGSLSLICAAYGTTFEYYAMRWYRQAPGKERELVATISIDGRTNYADSVKGRFTISRDNAKNTVYLQMISLKPEDTAVYYCAARPYWRHRYDYWGQGTQVTVSS | low polyreactivity |
